According to patent CN115850477A (SUZHOU SHALI BIOTECHNOLOGY CO LTD, dated 2023):

Tests used:
[1] = biological target: Human 4-1BB/TNFRSF9 Protein, His Tag (ACRO Biosystems) (human) (UniProt Q07011); assay: ELISA, coated 4-1BB-his, scFv clone supernatant
[2] = biological target: T1, Human 4-1BB/TNFRSF9 Protein, His Tag (ACRO Biosystems) (human, UniProt Q07011 24-186); assay: ELISA, coated Human 4-1BB His Tag 1 ug/ml, antibody from 10 ug/ml in two-fold dilutions
T1 construct: Bought from ACRO Biosystems; also called 4-1BB-his; not shown: His tag
T1 sequence (Q07011 24-186 limits assumed): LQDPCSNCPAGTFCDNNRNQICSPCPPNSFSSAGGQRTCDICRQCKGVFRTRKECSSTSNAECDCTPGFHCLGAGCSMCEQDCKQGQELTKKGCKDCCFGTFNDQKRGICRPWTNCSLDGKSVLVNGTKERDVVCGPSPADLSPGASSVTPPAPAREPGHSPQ

OD450 [1]	EC50 [2] [µg/mL]	Binder
1.12		GT1C8 (scFv克隆, 初筛离心上清) (scFv, V domains shown) VH: QMQLQESGPSLVKPSQTLSLTCSVTGDSITSGYWTWIRKFPGNRLEYMGFKSYSGSTYYNPSLKSRISITRDTSKNQYYLQLNSVTTEDTATYYCARSLLWLGAMDYWGQGTSVTVSS VL: DIVMTQSHKFMSTSVGDRVSITCKASQDVGTAVAWYQQKPGQSPKLLIYWASTRHTGVPDRFTGSGSGTDFTLTISNVQSEDLADYFCQQYSSYPYTFGGGTKLEMKR
	0.102	GT1C8 huIgG1型抗体 (antibody, V domains shown, GT1C8 is the only antibody described, but the name GT1C8 is never tied to these numbers in words; also called GT1C8的huIgG1抗体; GT1C8克隆hIgG1形式抗体) VH: QMQLQESGPSLVKPSQTLSLTCSVTGDSITSGYWTWIRKFPGNRLEYMGFKSYSGSTYYNPSLKSRISITRDTSKNQYYLQLNSVTTEDTATYYCARSLLWLGAMDYWGQGTSVTVSS VL: DIVMTQSHKFMSTSVGDRVSITCKASQDVGTAVAWYQQKPGQSPKLLIYWASTRHTGVPDRFTGSGSGTDFTLTISNVQSEDLADYFCQQYSSYPYTFGGGTKLEMKR
